How the values were obtained:
[1] = target: filamin C (FLNc) Ig-like domains 23–24, wild type (human); experiment: cross-linking
[2] = target: filamin C (FLNc) Ig-like domains 23–24, wild type (human); experiment: SEC-MALS
[3] = target: filamin C (FLNc) Ig-like domains 23–24, wild type (human); experiment: cross-linking; remark: listed apart in the source

Measured: stoichiometry N

filamin C (FLNc) Ig-like domains 23–24, wild type (domain or fragment)
2: all assays above

From PMC8237399
